Assay [1] addresses hexahistidine-tagged soluble four-domain CD4 (UniProt P01730). Description: SPR. Background: SPR reads the build-up and loss of mass on a sensor chip optically.
For assay [2], the target named is HIV-1 YU-2 gp120 I109A (HIV-1 YU-2). Description: SPR.
The target of assay [3] is HIV-1 YU-2 gp120 M426A (HIV-1 YU-2). Description: SPR.
Assay [4] has as its target HIV-1 YU-2 gp120 W112A (HIV-1 YU-2). Description: SPR.
The target in assay [5] is wild-type HIV-1 YU-2 Env gp120, soluble monomeric (HIV-1 YU-2) (UniProt P35961). The assay is described as follows: SPR.
For assay [6], the target named is HIV-1 YU-2 gp120 F210A (HIV-1 YU-2). Description: SPR.
Assay [7] has as its target HIV-1 YU-2 gp120 T257A (HIV-1 YU-2). Description: ITC.
For assay [8], the target named is HIV-1 YU-2 gp120 S375A (HIV-1 YU-2). Description: ITC. Background: In ITC the heat of successive injections is recorded.

This is an account of results in PMC4497506.

By Kd is commonly meant the concentration at which binding is half-saturated. Lower therefore signals tighter binding. The term IC50 denotes the concentration at which inhibition is half-maximal. A low value points to higher potency. One may read the stoichiometry N as the number of molecules, sites or subunits per partner or assembly.

For “HIV-1 YU-2 gp120 S375H (natural protein)”, the Kd in assay [1] is 5.2 nM.

For “peptide 2 (peptide 1 with Trp replaced by Tyr)”, the IC50 is 3100 nM in assay [2]; 5100 nM in assay [3]; greater than 50000 nM in [4]; 3000 nM in [5]; 4100 nM in [6].

On to “HIV-1 YU-2 gp120 W112A (natural protein)”, for which the Kd in the assay with mAb F105 was found to be 83 nM; in [1] it was 95 nM.

On to “HIV-1 YU-2 gp120 T257A (natural protein)”, for which, in assay [1], the Kd was 10.2 nM.

“HIV-1 YU-2 gp120 I109A (natural protein)”: the Kd in assay [1] amounted to 6.8 nM. This Kd lies about 1.5-fold lower than the previous one.

As to “HIV-1 YU-2 gp120 M426A (natural protein)”, the Kd in [1] was 59 nM.

In assay [7], “peptide 4 (peptide 1 with N-methylated indole at Trp 6)” yielded a dH of -11 kcal/mol and a stoichiometry N of 1.15. In [8], this substance returned a dH of -9.3 kcal/mol and a stoichiometry N of 1.13.

Substance “HIV-1 YU-2 gp120 T257R (natural protein)” registered a Kd in [1] of 21 nM.

As for “HIV-1 YU-2 gp120 S375A (natural protein)”, the Kd in assay [1] came to 6.2 nM.

Substance “HIV-1 YU-2 gp120 S375W (natural protein)” returned a Kd in [1] of 3.7 nM.

Turning to “peptide 1 (sequence-minimized peptide triazole Ile-Asn-Asn-Ile-X-Trp, X = ferrocenyl-triazolePro)”, the dH in assay [8] is -9.1 kcal/mol. The substance also showed an IC50 in assay [6] of 200 nM.

Turning to “HIV-1 YU-2 gp120 F210A (natural protein)”, the Kd in [1] stood at 230 nM.
